Laboratory results reported in paper doi:10.1101/276733 (bioRxiv, 2018).

Target: the molecule itself
Assay: cryo-EM structure

B1: Arf1-GTP (natural protein)
chain: not shown
  stoichiometry N: 3
